In PMC10707181, “Neuronal Scaffold Protein ARMS Interacts with Synaptotagmin-4 C2AB through the Ankyrin Repeat Domain with an Unexpected Mode” (International Journal of Molecular Sciences, 2023):
Blank lines part the entries; values can stand above or below the binder they belong to.

Legend:
ARMS R1-11 K180A [1] = molecular target: T1, ARMS R1-11 K180A (rat, UniProt Q9EQG6 1-365, K180A); experiment: ITC
T1 sequence: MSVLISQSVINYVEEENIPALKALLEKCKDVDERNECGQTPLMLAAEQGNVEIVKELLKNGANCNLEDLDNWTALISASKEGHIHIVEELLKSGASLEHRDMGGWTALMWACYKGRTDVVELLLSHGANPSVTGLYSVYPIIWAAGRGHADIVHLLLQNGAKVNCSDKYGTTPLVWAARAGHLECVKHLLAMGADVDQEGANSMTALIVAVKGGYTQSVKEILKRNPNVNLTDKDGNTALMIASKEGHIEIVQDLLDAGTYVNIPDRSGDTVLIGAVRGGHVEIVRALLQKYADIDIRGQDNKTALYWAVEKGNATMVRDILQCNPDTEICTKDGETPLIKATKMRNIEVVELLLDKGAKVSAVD

ARMS R1-11 K180A [2] = molecular target: T2, ARMS R1-11 K180A (rat, UniProt Q9EQG6 1-365, K180A); experiment: ITC; ARMS proteins (200 μM) in the syringe, Syt4 proteins (20 μM) in the cell; 25 °C; 50 mM Tris, 100 mM NaCl, 1 mM EDTA, 1 mM DTT, pH 7.8; one-site binding model; conditions: both partners purified
T2 construct: ARMS (Kidins220), rat, UniProt Q9EQG6, residues 1-365 (R1-11) with K180A; also called ARMS K180A; source: E. coli BL21 (DE3), purified (Ni-NTA, size-exclusion chromatography)
T2 sequence (looked up): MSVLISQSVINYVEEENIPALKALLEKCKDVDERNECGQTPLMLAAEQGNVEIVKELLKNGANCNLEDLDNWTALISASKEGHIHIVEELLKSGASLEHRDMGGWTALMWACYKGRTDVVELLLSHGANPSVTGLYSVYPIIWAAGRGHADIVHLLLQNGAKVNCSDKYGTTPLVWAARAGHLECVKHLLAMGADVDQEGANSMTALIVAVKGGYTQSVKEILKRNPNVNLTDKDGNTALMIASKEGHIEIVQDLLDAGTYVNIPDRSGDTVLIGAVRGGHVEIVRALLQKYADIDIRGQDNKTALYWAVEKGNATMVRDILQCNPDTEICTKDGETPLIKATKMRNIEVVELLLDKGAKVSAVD

[3] = molecular target: T3, ARMS ankyrin repeats 1–11 (R1-11, residues 1–365) (rat, UniProt Q9EQG6 1-365); experiment: as above; conditions: both partners purified
T3 construct: ARMS (Kidins220), rat, UniProt Q9EQG6, residues 1-365: ankyrin repeats 1-11; also called ARMS R1-11; ARMS R1-11 WT; source: E. coli BL21 (DE3), purified (Ni-NTA, size-exclusion chromatography)
T3 sequence (looked up): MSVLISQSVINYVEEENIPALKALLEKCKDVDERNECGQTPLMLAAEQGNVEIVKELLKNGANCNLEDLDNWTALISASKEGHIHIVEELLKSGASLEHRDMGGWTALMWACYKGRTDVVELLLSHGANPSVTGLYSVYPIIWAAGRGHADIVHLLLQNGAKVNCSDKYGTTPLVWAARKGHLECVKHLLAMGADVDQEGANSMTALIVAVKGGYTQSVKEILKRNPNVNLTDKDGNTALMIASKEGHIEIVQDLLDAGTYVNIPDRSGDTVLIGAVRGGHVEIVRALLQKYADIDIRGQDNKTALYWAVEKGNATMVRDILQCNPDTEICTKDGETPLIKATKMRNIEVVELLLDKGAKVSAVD

[4] = molecular target: T4, ARMS protein N-terminal region (NT, residues 1–455) (rat, UniProt Q9EQG6 1-455); experiment: as above; conditions: both partners purified
T4 construct: ARMS (Kidins220), rat, UniProt Q9EQG6, residues 1-455: N-terminal region with the entire ankyrin repeat domain; also called ARMS NT; Kidins220 NT; source: E. coli BL21 (DE3), purified (Ni-NTA, size-exclusion chromatography)
T4 sequence (looked up): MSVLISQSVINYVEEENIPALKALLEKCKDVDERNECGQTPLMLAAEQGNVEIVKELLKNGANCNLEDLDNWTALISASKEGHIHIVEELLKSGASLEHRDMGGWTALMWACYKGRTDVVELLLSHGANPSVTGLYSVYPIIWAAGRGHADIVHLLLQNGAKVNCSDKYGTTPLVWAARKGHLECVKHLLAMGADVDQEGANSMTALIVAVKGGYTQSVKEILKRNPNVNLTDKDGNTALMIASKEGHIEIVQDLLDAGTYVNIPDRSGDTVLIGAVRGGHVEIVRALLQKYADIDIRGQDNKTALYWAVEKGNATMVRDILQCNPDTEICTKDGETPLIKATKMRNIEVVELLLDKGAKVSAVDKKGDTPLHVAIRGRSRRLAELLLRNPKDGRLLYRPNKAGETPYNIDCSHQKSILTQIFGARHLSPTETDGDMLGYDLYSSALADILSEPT

Kd (ARMS R1-11 K180A [1]): 11 µM
binding result (ARMS R1-11 K180A [2]): binds
binding result [3]: binds
B1: Syt4 132–425 (domain or fragment, human, UniProt Q9H2B2-1 132-425, looked up)
chain: ESVSPESLKSSTSLTSEEKQEKLGTLFFSLEYNFERKAFVVNIKEARGLPAMDEQSMTSDPYIKMTILPEKKHKVKTRVLRKTLDPAFDETFTFYGIPYTQIQELALHFTILSFDRFSRDDIIGEVLIPLSGIELSEGKMLMNREIIKRNVRKSSGRGELLISLCYQSTTNTLTVVVLKARHLPKSDVSGLSDPYVKVNLYHAKKRISKKKTHVKKCTPNAVFNELFVFDIPCEGLEDISVEFLVLDSERGSRNEVIGQLVLGAAAEGTGGEHWKEICDYPRRQIAKWHVLCDG
notes: source: E. coli BL21 (DE3), purified (Ni-NTA, size-exclusion chromatography)

binding result [3]: binds
B2: Syt4 132–425 K284A (domain or fragment, human, UniProt Q9H2B2-1 132-425, looked up)
chain: ESVSPESLKSSTSLTSEEKQEKLGTLFFSLEYNFERKAFVVNIKEARGLPAMDEQSMTSDPYIKMTILPEKKHKVKTRVLRKTLDPAFDETFTFYGIPYTQIQELALHFTILSFDRFSRDDIIGEVLIPLSGIELSEGKMLMNREIIKRNVRASSGRGELLISLCYQSTTNTLTVVVLKARHLPKSDVSGLSDPYVKVNLYHAKKRISKKKTHVKKCTPNAVFNELFVFDIPCEGLEDISVEFLVLDSERGSRNEVIGQLVLGAAAEGTGGEHWKEICDYPRRQIAKWHVLCDG
notes: also called Syt4 K284A variant; source: E. coli BL21 (DE3), purified (Ni-NTA, size-exclusion chromatography)

Kd [3]: ~7 µM
B3: Syt4 C2AB (residues 151–425) (domain or fragment, human, UniProt Q9H2B2-1 151-425, looked up)
chain: QEKLGTLFFSLEYNFERKAFVVNIKEARGLPAMDEQSMTSDPYIKMTILPEKKHKVKTRVLRKTLDPAFDETFTFYGIPYTQIQELALHFTILSFDRFSRDDIIGEVLIPLSGIELSEGKMLMNREIIKRNVRKSSGRGELLISLCYQSTTNTLTVVVLKARHLPKSDVSGLSDPYVKVNLYHAKKRISKKKTHVKKCTPNAVFNELFVFDIPCEGLEDISVEFLVLDSERGSRNEVIGQLVLGAAAEGTGGEHWKEICDYPRRQIAKWHVLCDG
notes: also called Syt4 CAB; source: E. coli BL21 (DE3), purified (Ni-NTA, size-exclusion chromatography)

binding result [3]: binds
B4: Syt4 132–425 Q186A (domain or fragment, human, UniProt Q9H2B2-1 132-425, looked up)
chain: ESVSPESLKSSTSLTSEEKQEKLGTLFFSLEYNFERKAFVVNIKEARGLPAMDEASMTSDPYIKMTILPEKKHKVKTRVLRKTLDPAFDETFTFYGIPYTQIQELALHFTILSFDRFSRDDIIGEVLIPLSGIELSEGKMLMNREIIKRNVRKSSGRGELLISLCYQSTTNTLTVVVLKARHLPKSDVSGLSDPYVKVNLYHAKKRISKKKTHVKKCTPNAVFNELFVFDIPCEGLEDISVEFLVLDSERGSRNEVIGQLVLGAAAEGTGGEHWKEICDYPRRQIAKWHVLCDG
notes: also called Syt4 Q186A; source: E. coli BL21 (DE3), purified (Ni-NTA, size-exclusion chromatography)

Kd [4]: ~17 µM
B5: full length of the cytoplasmic region of Syt4 (CD, residues 41–425) (domain or fragment, human, UniProt Q9H2B2-1 41-425, looked up)
chain: KSSKSNKTPPYKFVHVLKGVDIYPENLNSKKKFGADDKNEVKNKPAVPKNSLHLDLEKRDLNGNFPKTNLKPGSPSDLENATPKLFLEGEKESVSPESLKSSTSLTSEEKQEKLGTLFFSLEYNFERKAFVVNIKEARGLPAMDEQSMTSDPYIKMTILPEKKHKVKTRVLRKTLDPAFDETFTFYGIPYTQIQELALHFTILSFDRFSRDDIIGEVLIPLSGIELSEGKMLMNREIIKRNVRKSSGRGELLISLCYQSTTNTLTVVVLKARHLPKSDVSGLSDPYVKVNLYHAKKRISKKKTHVKKCTPNAVFNELFVFDIPCEGLEDISVEFLVLDSERGSRNEVIGQLVLGAAAEGTGGEHWKEICDYPRRQIAKWHVLCDG
notes: also called Synaptotagmin-4 CD; source: E. coli BL21 (DE3), purified (Ni-NTA, size-exclusion chromatography)
